Columns and labels:
[1] = biological target: microtubules (taxol-stabilised, polymerised from PC-tubulin; tubulin alpha-beta heterodimer) (UniProt P02550); assay: cryo-EM structure
[2] = biological target: microtubules (taxol-stabilised, polymerised from PC-tubulin; tubulin alpha-beta heterodimer) (UniProt P02550); assay: co-sedimentation

UniProt P02550, sequence (P02550 whole entry, looked up, one chain of several): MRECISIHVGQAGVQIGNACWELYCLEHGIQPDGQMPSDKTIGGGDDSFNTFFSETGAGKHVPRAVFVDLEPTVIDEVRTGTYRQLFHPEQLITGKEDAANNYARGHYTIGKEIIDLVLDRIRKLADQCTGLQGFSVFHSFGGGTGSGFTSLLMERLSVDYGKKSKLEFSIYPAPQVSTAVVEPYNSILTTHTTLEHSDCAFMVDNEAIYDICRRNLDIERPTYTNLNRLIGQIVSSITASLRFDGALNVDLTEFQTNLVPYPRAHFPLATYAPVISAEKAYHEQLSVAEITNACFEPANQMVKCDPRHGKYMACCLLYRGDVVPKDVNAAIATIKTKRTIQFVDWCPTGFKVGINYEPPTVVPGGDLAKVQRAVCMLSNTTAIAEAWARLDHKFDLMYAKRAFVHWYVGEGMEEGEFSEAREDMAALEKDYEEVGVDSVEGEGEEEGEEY

Substance: rat kinesin construct rK354 (from UniProt P56536 1-354) (domain or fragment)
- stoichiometry N (kinesin head per tubulin heterodimer) [1]: 1

Substance: rat kinesin construct rK379 (from UniProt P56536 1-379) (domain or fragment)
- Kd [2]: 400 nM
- stoichiometry N (kinesin heads per tubulin dimer) [2]: 1.1
- stoichiometry N (head per tubulin dimer) [1]: 1
- stoichiometry N (head per tubulin heterodimer) [1]: 1
